Measurements taken from paper PMC10532227.

Assays:
PARP1 = test: spFRET microscopy; details: buffer, salt, pH and temperature of binding assays not given in the material (Methods 4.4-4.7 empty)
[1] = target: fluorescently labeled mononucleosomes assembled from octamers of recombinant human histones and DNA containing the 147 bp nucleosome positioning sequence 603 (human); test: spFRET microscopy; as a2 but nucleosomes N(13, 91) (1 nM) preincubated 15 min with EGCG (0.8 µM) before PARP1 (20 nM), or PARP1 preincubated with EGCG; TB150 buffer, room temperature; then NAD+ (20 µM), 45 min
[2] = target: fluorescently labeled mononucleosomes assembled from octamers of recombinant human histones and DNA containing the 147 bp nucleosome positioning sequence 603 (human); test: spFRET microscopy; nucleosomes N(13, 91) (1 nM; Cy3/Cy5 on nucleosomal DNA) with PARP1 (20 or 50 nM), 30 min at room temperature in TB150 buffer (20 mM Tris-HCl pH 7.9, 5 mM MgCl2, 150 mM KCl, 1 mM β-ME); then NAD+ (20 µM), 45 min; no EGCG

Substance	binding signal (% nucleosomes bound) (PARP1; 20 nM PARP1, no EGCG)	binding signal (% nucleosomes bound) (PARP1; 20 nM PARP1 added to nucleosomes preformed with 0.8 uM EGCG)	percent of detected particles in the EGCG–nucleosome–PARP1 complex at 20 nM PARP1 and 0.8 µM EGCG [1]	percent of nucleosomes in the complex at 20 nM PARP1 [2]
N(13, 91) nucleosome	65	67		
human poly(ADP-ribose) polymerase 1 fused with hexahistidine tag at the N-terminus (from UniProt P09874 1-1014) (enzyme)			67%	65%
